Results on three molecules are retold here after paper PMC7611231, “Allosteric Activation of the ATPase Activity of the Escherichia coli RhlB RNA Helicase*” (The Journal of biological chemistry, 2007).

Where only a bound is given, the exact number is not on record here.

First the molecules themselves.
B1: Escherichia coli DEAD box RNA helicase RhlB, wild type (enzyme, E. coli, UniProt P0A8J8 1-421, looked up)
chain: MSKTHLTEQKFSDFALHPKVVEALEKKGFHNCTPIQALALPLTLAGRDVAGQAQTGTGKTMAFLTSTFHYLLSHPAIADRKVNQPRALIMAPTRELAVQIHADAEPLAEATGLKLGLAYGGDGYDKQLKVLESGVDILIGTTGRLIDYAKQNHINLGAIQVVVLDEADRMYDLGFIKDIRWLFRRMPPANQRLNMLFSATLSYRVRELAFEQMNNAEYIEVEPEQKTGHRIKEELFYPSNEEKMRLLQTLIEEEWPDRAIIFANTKHRCEEIWGHLAADGHRVGLLTGDVAQKKRLRILDEFTRGDLDILVATDVAARGLHIPAVTHVFNYDLPDDCEDYVHRIGRTGRAGASGHSISLACEEYALNLPAIETYIGHSIPVSKYNPDALMTDLPKPLRLTRPRTGNGPRRTGAPRNRRRSG
notes: The same untagged protein from two vectors (pET11a alone; second cloning site of pRSF-Duet-1, NdeI/XhoI, in pRneRhlB); also called WT RhlB; Helicase B; source: E. coli BL21(DE3), pET11a, purified (published procedure plus S200 size exclusion)
B2: N-terminal His6-tagged RNase E residues 696-762 (domain or fragment, E. coli, UniProt P21513 696-762, looked up)
chain: ALNVEEQSVQETEQEERVRPVQPRRKQRQLNQKVRYEQSVAEEAVVAPVVEETVAAEPIVQEAPAPR
notes: Cloned BamHI/SalI in the first cloning site of pRSF-Duet-1; also called RNase E peptide; source: E. coli, pRSF-Duet-1, purified (Ni-NTA, S200); also co-expressed with RhlB from pRneRhlB in E. coli BL21(DE3), co-purified (Ni-NTA, SP, S200); not shown: His6, N-terminal, kept

Assay [1] addresses RNase E 628-843 (Escherichia coli) (UniProt P21513). The following applies: cited from earlier work.
Assay [2] concerns the target B2. As to the kind of experiment: SEC; co-expressed in E. coli from a di-cistronic vector; His6-RNase E-(696-762) held on Ni-NTA, then SP column and S200 size exclusion; fractions on SDS-PAGE. Particulars: partners not purified. (In general: SEC sorts molecules by how far they enter the pores of the column.)
In assay [3] the target is RhlB S381A (E. coli).
Assay [4] deals with B1. Put plainly: native MS; nanoflow ESI under non-dissociating conditions; co-expressed complex after size exclusion chromatography, 5-20 uM, 250 mM ammonium acetate; MS/MS of the +15 ion. Particulars: both partners purified.
For the next assay, the target named is RhlB H320D (E. coli). Put plainly: ITC; 300 uM RNase E-(696-762) in the syringe titrated into 20 uM WT RhlB or variant in the cell; 25 C; 50 mM potassium phosphate pH 7.4, 100 mM NaCl, 1 mM dithiothreitol (methods; the table's caption says 100 mM KPi, 50 mM NaCl); 1:1 model; Ka are lower limits. For orientation: ITC needs no label: the signal is the heat of the interaction.

For assay [5], the target named is RhlB S381A (E. coli). The assay is described as above.
Assay [6] concerns the target B1. The assay is described as above. The following applies: both partners purified.

In general, Kd refers to the free concentration of one partner at which half of the binding sites on the other are occupied at equilibrium, for simple one-to-one binding. What is called stoichiometry N is a count of units in the complex or per binding partner.

RNase E 628-843 (Escherichia coli), sequence (P21513 628-843): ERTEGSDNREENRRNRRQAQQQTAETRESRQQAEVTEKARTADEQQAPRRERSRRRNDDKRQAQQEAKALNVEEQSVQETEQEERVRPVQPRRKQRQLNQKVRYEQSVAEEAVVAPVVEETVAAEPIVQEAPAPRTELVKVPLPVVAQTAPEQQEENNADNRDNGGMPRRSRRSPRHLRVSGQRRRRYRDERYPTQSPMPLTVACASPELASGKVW

Take RhlB (from UniProt P0A8J8): the Kd in assay [1] was 50 nM.

For B1, the “stoichiometry N” value in assay [2] is about 1.

As for B2, in the assay with RhlB S381A (E. coli) [3], the ATPase activity of S381A RhlB with RNase E-(696-762) and bulk S. cerevisiae RNA (S381A RhlB alone: ≤0.5) (mol Pi/min/mol protein) was 9.4. Also, the “stoichiometry N” value in assay [4] came out at 1; with RhlB H320D (E. coli) it was 0.83; in the assay with RhlB S381A (E. coli) [5], 1.2; in assay [6], 0.92. Further, the Ka with RhlB H320D (E. coli) was over 7e+07 M⁻¹; in the assay with RhlB S381A (E. coli) [5], over 8e+07 M⁻¹; in assay [6] it was at least 1.1e+08 M⁻¹. Besides, the dH with RhlB H320D (E. coli) was -29 kcal/mol; with RhlB S381A (E. coli) [5] it was -23.3 kcal/mol; in assay [6] it was -27.6 kcal/mol.
